Experimental data reported in patent US20220387487A1, “COMPOSITIONS AND METHODS FOR TREATMENT OF CANCER” (Aleta Biotherapeutics Inc., priority 2019, published 2022).
Values joined by “and” are separate entries in the source; they are usually repeats but may differ in a detail not shown here. Identical values can stand only once. Blank lines part the entries; values can stand above or below the molecule they belong to.

Columns and labels:
CD33 = CD33 (Homo sapiens, UniProt P20138); experiment: ELISA of fusion proteins, FMC63 coat, biotinylated CD33 detection; assay type: binding; details: ELISA, FMC63 coat, biotinylated CD33
Description: ELISAs for binding to CD19, CLEC12A and CD33 were run using purified fusion proteins #330, #410 and #440. A 96 well plate was coated with 1.0 μg/ml FMC63 (Novus) in 0.1 M carbonate, pH 9.5 overnight at 4° C. The plate was blocked with 0.3% non-fat milk in TBS for 1 hour at room temperature. After washing in TBST (0.1 M Tris, 0.5 M NaCl, 0.05% Tween20) 3 times, the fusion protein supernatant was titrated using 3-fold dilutions in 1% BSA in TBS and incubated 1 hour at room temperature. For detection by anti-His, after washing 3 times in TBST, HRP-anti-His (BioLegend) was added at 1:2000. The plate was incubated at room temperature in the dark for 1 hour. For detection of binding to CLEC12A, biotinylated CLEC12A was added at 0.5 μg/ml and incubated for 1 hour. This was followed by adding HRP-SA (Pierce) at 1:2000 and incubated at room temperature in the dark for 1 hour. For testing binding to CD33, biotinylated CD33 was added at 0.5 μg/ml and incubated for 1 hour. This was followed by adding HRP-SA (Pierce) at 1:2000 and incubated at room temperature in the dark for 1 hour. Then, 1-Step Ultra TMB-ELISA (Thermo Fisher) solution, was added and the plate read at […]. Curves were fit using a four-parameter logistic (4 PL) regression to calculate the EC50.

CLEC12A = target: T1, CLEC12A (Homo sapiens, UniProt Q5QGZ9, K244Q); experiment: ELISA of fusion proteins, FMC63 coat, biotinylated CLEC12A detection; assay type: binding
T1 sequence (Q5QGZ9 65-265 K244Q): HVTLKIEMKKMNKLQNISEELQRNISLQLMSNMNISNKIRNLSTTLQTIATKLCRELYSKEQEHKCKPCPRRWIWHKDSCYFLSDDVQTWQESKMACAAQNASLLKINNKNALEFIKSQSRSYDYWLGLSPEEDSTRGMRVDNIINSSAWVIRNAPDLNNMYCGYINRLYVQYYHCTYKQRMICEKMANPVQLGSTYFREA

Molm14 cells = experiment: CAR-CD19 T cell cytotoxicity bridged by purified fusion protein, luciferase Molm14 cells; assay type: cell-based; details: FIG. 21A
Description: To test cytoxicity, luciferase labeled Molm14 or U937 cells were targeted for cytotoxic killing using a CAR19 T cell preparation and the purified proteins #330, #410 and #440 added in a dose titration. 1×10^4 target cells were added to each well (96 clear round bottom plate) in RPMI medium. The protein titration was started at 180 ng/ml with 3-fold serial titration into corresponding wells (25 μl per well). CAR-CD19 T cells were added at various E:T ratios to the target cells. After 48 hours the plate was centrifuged (450 RCF for 5 minutes) and the cells were washed 1× with PBS then centrifuged a second time. 20 μl lysis buffer was added into each well. The cell lysate was transferred to a 96 opaque white plate. The plates were read in a luminometer with an injector (Glomax Multi Detection System, Promega). The percent killing was calculated based upon the average loss of luminescence of the experimental vs the control (target cell only or target cell plus fusion protein only).

biotinylated CD33 = biotinylated CD33 (UniProt P20138 18-259, biotinylated (site not stated)); experiment: ELISA: fusion protein captured on FMC63, biotinylated CD33, HRP-SA
CD33 on U937 cells [1] = target: T2, CD33 on U937 cells (UniProt P20138 18-364, limits assumed); experiment: flow cytometry on U937 cells (cell line per paragraph 272), purified fusion protein, detection with FMC63-PE, % Binding
T2 construct: whole, on cells

CD33 on U937 cells [2] = target: T2, CD33 on U937 cells; experiment: flow cytometry on U937 cells (cell line per paragraph 272), purified fusion protein, detection with FMC63-PE, % Binding; the cells carry both CLEC12A and CD33, the value is for the whole cell and is not split between the two antigens
[3] = target: T3, CLL-1 (CLEC12A) on CLL-1 positive cell lines (U937, OCI-AML-5) (human, UniProt Q5QGZ9 1-265); experiment: as above
T3 construct: whole, on cells; also called MICL
T3 sequence: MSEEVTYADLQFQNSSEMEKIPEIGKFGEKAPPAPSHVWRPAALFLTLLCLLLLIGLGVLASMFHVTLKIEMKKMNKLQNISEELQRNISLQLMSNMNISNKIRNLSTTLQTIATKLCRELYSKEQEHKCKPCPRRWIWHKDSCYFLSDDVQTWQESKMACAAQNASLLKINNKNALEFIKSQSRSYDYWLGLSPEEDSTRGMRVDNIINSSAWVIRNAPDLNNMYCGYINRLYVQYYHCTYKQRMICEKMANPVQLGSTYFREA

[4] = target: T3, CLL-1 (CLEC12A) on CLL-1 positive cell …; experiment: cell-based or functional assay
[5] = target: T3, CLL-1 (CLEC12A) on CLL-1 positive cell …; experiment: flow cytometry on CLL-1 positive U937 cells, FMC63-PE detection

B1: #410: fusion protein containing the CD19 ECD and anti-CD33 scFv; SEQ ID NO:325 (protein)
chain: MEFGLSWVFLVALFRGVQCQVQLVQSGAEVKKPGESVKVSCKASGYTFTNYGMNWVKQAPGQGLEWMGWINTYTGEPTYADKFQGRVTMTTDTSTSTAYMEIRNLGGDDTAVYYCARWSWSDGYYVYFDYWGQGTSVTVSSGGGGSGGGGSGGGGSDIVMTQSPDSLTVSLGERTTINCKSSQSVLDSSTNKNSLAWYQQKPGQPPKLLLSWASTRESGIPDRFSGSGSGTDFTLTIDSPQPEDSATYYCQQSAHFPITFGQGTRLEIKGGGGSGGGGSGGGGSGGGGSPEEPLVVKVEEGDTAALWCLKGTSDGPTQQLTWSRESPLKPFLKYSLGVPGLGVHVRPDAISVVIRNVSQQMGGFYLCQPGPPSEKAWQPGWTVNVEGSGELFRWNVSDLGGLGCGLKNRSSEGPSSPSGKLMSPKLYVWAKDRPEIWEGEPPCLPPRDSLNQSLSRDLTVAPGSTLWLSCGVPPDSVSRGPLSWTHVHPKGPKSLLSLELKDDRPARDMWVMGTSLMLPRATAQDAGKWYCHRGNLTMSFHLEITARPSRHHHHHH
CD33 binding EC50 (CD33): 3.0 ng/mL
CLEC12A binding EC50 pM (CLEC12A): ∞
CLEC12A binding EC50 ng/ml (CLEC12A): ∞
cytotoxicity on Molm14 cells (Molm14 cells): about equipotent

B2: anti-CD33 scFv-variant CD19-His (construct #410) (other)
chain: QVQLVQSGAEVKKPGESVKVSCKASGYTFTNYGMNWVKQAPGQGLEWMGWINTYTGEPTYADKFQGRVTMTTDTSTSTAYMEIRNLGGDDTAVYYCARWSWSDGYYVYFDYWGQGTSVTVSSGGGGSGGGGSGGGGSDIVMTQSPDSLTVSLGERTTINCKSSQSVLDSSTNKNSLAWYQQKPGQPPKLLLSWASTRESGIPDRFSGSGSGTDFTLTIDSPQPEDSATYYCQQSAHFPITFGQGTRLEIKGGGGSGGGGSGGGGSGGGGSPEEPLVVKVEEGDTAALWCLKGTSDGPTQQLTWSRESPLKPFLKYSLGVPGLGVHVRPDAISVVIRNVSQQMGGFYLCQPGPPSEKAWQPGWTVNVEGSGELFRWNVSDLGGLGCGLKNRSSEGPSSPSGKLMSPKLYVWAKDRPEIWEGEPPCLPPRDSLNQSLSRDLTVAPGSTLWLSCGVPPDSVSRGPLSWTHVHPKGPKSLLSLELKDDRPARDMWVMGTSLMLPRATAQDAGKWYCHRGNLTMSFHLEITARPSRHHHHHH
notes: also called anti-CD33 scFv fusion protein
EC50 (biotinylated CD33): 0.003 µg/mL and 0.0522 nM
EC50 (CD33 on U937 cells [1]): 0.0213 µg/mL and 0.37 nM

EC50 (biotinylated CD33): 0.0021 µg/mL and 0.0292 nM
EC50 (CD33 on U937 cells [2]): 0.00796 µg/mL and 0.111 nM
EC50 [3]: 0.00796 µg/mL and 0.111 nM
B3: anti-CD33 scFv-anti-CLL VHH (2H3)-CD19 variant (construct #440) (other)
chain: QVQLVQSGAEVKKPGESVKVSCKASGYTFTNYGMNWVKQAPGQGLEWMGWINTYTGEPTYADKFQGRVTMTTDTSTSTAYMEIRNLGGDDTAVYYCARWSWSDGYYVYFDYWGQGTSVTVSSGGGGSGGGGSGGGGSDIVMTQSPDSLTVSLGERTTINCKSSQSVLDSSTNKNSLAWYQQKPGQPPKLLLSWASTRESGIPDRFSGSGSGTDFTLTIDSPQPEDSATYYCQQSAHFPITFGQGTRLEIKGGGGSGGGGSGGGGSGGGGSQVQLQESGGGLVQAGGSLRLSCVASGSIRSINVMGWYRQAPGKQRELVAACASDGNTYYADSVKGRFTISRDNAEKTVYLQMNNLKPDDTAVYYCDANSRGNYYSGQGTQVTVSSTSGPGGQGAGGGGSGGGGSGGGGSGGGGSPEEPLVVKVEEGDTAALWCLKGTSDGPTQQLTWSRESPLKPFLKYSLGVPGLGVHVRPDAISVVIRNVSQQMGGFYLCQPGPPSEKAWQPGWTVNVEGSGELFRWNVSDLGGLGCGLKNRSSEGPSSPSGKLMSPKLYVWAKDRPEIWEGEPPCLPPRDSLNQSLSRDLTVAPGSTLWLSCGVPPDSVSRGPLSWTHVHPKGPKSLLSLELKDDRPARDMWVMGTSLMLPRATAQDAGKWYCHRGNLTMSFHLEITARPSRHHHHHH

B4: CD19 variant-anti-CLL-1 VHH(1B12) (construct #321) (other)
chain: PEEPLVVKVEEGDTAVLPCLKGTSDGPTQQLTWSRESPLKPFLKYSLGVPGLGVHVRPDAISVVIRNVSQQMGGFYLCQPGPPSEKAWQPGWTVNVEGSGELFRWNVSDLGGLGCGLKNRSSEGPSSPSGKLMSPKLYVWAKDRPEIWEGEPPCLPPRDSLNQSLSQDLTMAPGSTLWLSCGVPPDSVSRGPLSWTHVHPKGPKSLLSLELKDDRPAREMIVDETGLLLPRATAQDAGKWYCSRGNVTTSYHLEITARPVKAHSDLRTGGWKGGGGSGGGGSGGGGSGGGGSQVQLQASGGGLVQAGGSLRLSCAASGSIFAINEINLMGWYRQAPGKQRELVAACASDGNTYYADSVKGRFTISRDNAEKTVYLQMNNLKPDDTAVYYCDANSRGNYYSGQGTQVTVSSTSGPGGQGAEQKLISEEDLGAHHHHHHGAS
notes: Fusion of a CD19 variant extracellular domain, linker, anti-CLL-1 VHH 1B12 and myc-His tag
CLEC12A-cell cytotoxicity (IC50 n = 2-3) [4]: 0.027 nM
EC50 [5]: 3 nM
